Where two headings read alike, the source gives them in different places.
Key:
HLA-A*0201 = HLA-A*0201 (Homo sapiens, UniProt P04439, D140Y/D185E/D98H/E176V/E277Q/G131W/G231S/I119V/I121R/I166T/I218V/L300P/L318F/N151K/N90K/P208A/P217A/Q86G/Q94H/R138H/R169H/T345S)
Protocol: T2 cells (2·10^5 cells per well) are incubated with decreasing concentrations of peptides from 100 μM to 0.1 μM in a AIMV medium supplemented with 100 ng/μl of human P2m at 37° C. for 16 hours.
The analysis is achieved by FACS (Guava Easy Cyte).
The relative affinity is then determined as follows:
Each peptide is solubilized by taking into account the amino acid composition. […] Other peptides are resuspended in water or PBS pH7.4.
T2 cells (2·10^5 cells per well) were incubated with decreasing concentrations of peptides from 100 μM to 0.1 μM in a AIMV medium supplemented with 100 ng/μl of human P2m at 37° C. for 16 hours.
The analysis was achieved by FACS (Guava Easy Cyte).

[1] = molecular target: T1, HLA-A*0201 molecule expressed on human tumor cell line T2 (human); assay: T2 cell HLA-A2 stabilisation, FACS; ratio of 20% concentration to that of HIV pol 589-597 (lower = stronger)
T1 construct: surface HLA-A2 read with anti-HLA-A2 antibody BB7.2-PE by FACS; also called HLA-A2

[2] = molecular target: T1, HLA-A*0201 molecule expressed on human …; assay: T2 cell HLA-A2 stabilisation, FACS; 20% of signal of HIV pol 589-597 at 100 µM
[3] = molecular target: T1, HLA-A*0201 molecule expressed on human …; assay: T2 cell HLA-A2 stabilisation, FACS; peptide at 100 µM
[4] = molecular target: T1, HLA-A*0201 molecule expressed on human …; assay: T2 cell HLA-A2 stabilisation, FACS; peptide at 6.25 µM
[5] = molecular target: T1, HLA-A*0201 molecule expressed on human …; assay: T2 cell HLA-A2 stabilisation, FACS; peptide at 25 µM
[6] = molecular target: T1, HLA-A*0201 molecule expressed on human …; assay: T2 cell HLA-A2 stabilisation, FACS; peptide at 1.5625 µM
[7] = molecular target: T1, HLA-A*0201 molecule expressed on human …; assay: T2 cell HLA-A2 stabilisation, FACS; peptide at 50 µM
[8] = molecular target: T1, HLA-A*0201 molecule expressed on human …; assay: T2 cell HLA-A2 stabilisation, FACS; peptide at 3.125 µM
[9] = molecular target: T1, HLA-A*0201 molecule expressed on human …; assay: T2 cell HLA-A2 stabilisation, FACS; ratio of 20% concentration to that of HIV pol 589-597 (lower = stronger); remark: listed apart in the source
[10] = molecular target: T1, HLA-A*0201 molecule expressed on human …; assay: T2 cell HLA-A2 stabilisation, FACS; 20% of signal of HIV pol 589-597 at 100 µM; remark: listed apart in the source
[11] = T2 cell line, HLA-A*0201, Example 13, protocol as in Example 3
[12] = HLA-A*0201, HIV peptide printed as 1

Molecule: YLPFGFILV [IL13RA2-B5]
- Concentration of peptide that induces 20% of HLA-A2 expression (HLA-A*0201; [11]): 1.5 µM

Molecule: HIV: Reference peptide HIV pol 589-597, positive control (ISPIETVPV; UniProt P04585 589-597, looked up, fragment) [reference compound]
- In vitro binding affinity (HLA-A*0201; [12]): 1
- Concentration of peptide that induces 20% of HLA-A2 expression (HLA-A*0201; Table 17, Example 12): 0.85 µM
- In vitro binding affinity (HLA-A*0201; Table 17, Example 12, relative affinity vs HIV): 1.00
- Relative HLA-A2 labelling on T2 cells (HIV at 100 μM = 100) (HLA-A*0201; Table 18, peptide concentration 0.1 μM): 2.405
- Relative HLA-A2 labelling on T2 cells (HIV at 100 μM = 100) (HLA-A*0201; Table 18, peptide concentration 1 μM): 22.14
- Relative HLA-A2 labelling on T2 cells (HIV at 100 μM = 100) (HLA-A*0201; Table 18, peptide concentration 10 μM): 84.725
- Relative HLA-A2 labelling on T2 cells (HIV at 100 μM = 100) (HLA-A*0201; Table 18, peptide concentration 100 μM): 100

Molecule: YLYTFLIST [IL13RA2-B2]
- In vitro binding affinity (HLA-A*0201; [12]): 5.97
- Concentration of peptide that induces 20% of HLA-A2 expression (HLA-A*0201; [11]): 4.5 µM

Molecule: FMPFGFILPI [IL13RA2-B6]
- Concentration of peptide that induces 20% of HLA-A2 expression (HLA-A*0201; [11]): 5.9 µM

Molecule: RVSSYLVPI (listed as Homo sapiens) [FOXM1-H, reference compound]
- Concentration of peptide that induces 20% of HLA-A2 expression (HLA-A*0201; Table 14, Example 8): 37.6 µM

Molecule: LMLGEFLKL [2M, reference compound]
- Concentration of peptide that induces 20% of HLA-A2 expression (HLA-A*0201; Table 17, Example 12): 2.87 µM

Molecule: FMPFGFILGV [IL13RA2-B3]
- Concentration of peptide that induces 20% of HLA-A2 expression (HLA-A*0201; [11]): 3.3 µM

Molecule: RLSSYLVEI [FOXM1-B]
- Concentration of peptide that induces 20% of HLA-A2 expression (HLA-A*0201; Table 14, Example 8): 46.7 µM

Molecule: ALPFGFILV [1A9V, reference compound]
- Concentration of peptide that induces 20% of HLA-A2 expression (HLA-A*0201; [11]): 20.9 µM
- Concentration of peptide that induces 20% of HLA-A2 expression (HLA-A*0201; Table 12, Example 7): 36.5 µM

Molecule: YMPFGFILV [IL13RA2-B4]
- Concentration of peptide that induces 20% of HLA-A2 expression (HLA-A*0201; [11]): 4.5 µM

Molecule: FMPFGFILPI [IL13RA2-B6]
- In vitro binding affinity (relative affinity) [1]: 6.86
- Concentration of peptide that induces 20% of HLA-A2 expression [2]: 5.9 µM

Molecule: WLPFGFILI [IL13RA2-H]
- In vitro binding affinity (relative affinity) [1]: 78.8
- mean relative fluorescence intensity [3]: 26.5 relative (HIV peptide = 100)
- mean relative fluorescence intensity [4]: 9.6 relative (HIV peptide = 100)
- mean relative fluorescence intensity [5]: 11.2 relative (HIV peptide = 100)
- mean relative fluorescence intensity [6]: 3 relative (HIV peptide = 100)
- mean relative fluorescence intensity [7]: 14.2 relative (HIV peptide = 100)
- mean relative fluorescence intensity [8]: 3.7 relative (HIV peptide = 100)
- Concentration of peptide that induces 20% of HLA-A2 expression [2]: 62.3 µM

Molecule: RVSSYLVPI [FOXM1-H]
- In vitro binding affinity (relative affinity) [9]: 3.7
- mean relative fluorescence intensity [3]: 83.8 relative (HIV peptide = 100)
- mean relative fluorescence intensity [4]: 0 relative (HIV peptide = 100)
- mean relative fluorescence intensity [5]: 10.5 relative (HIV peptide = 100)
- mean relative fluorescence intensity [6]: 0 relative (HIV peptide = 100)
- mean relative fluorescence intensity [7]: 30.7 relative (HIV peptide = 100)
- mean relative fluorescence intensity [8]: 0 relative (HIV peptide = 100)
- Concentration of peptide that induces 20% of HLA-A2 expression [10]: 37.6 µM

Molecule: RLSSYLVEI [FOXM1-B]
- In vitro binding affinity (relative affinity) [9]: 4.6
- mean relative fluorescence intensity [3]: 47.5 relative (HIV peptide = 100)
- mean relative fluorescence intensity [4]: 0 relative (HIV peptide = 100)
- mean relative fluorescence intensity [5]: 7.6 relative (HIV peptide = 100)
- mean relative fluorescence intensity [6]: 0 relative (HIV peptide = 100)
- mean relative fluorescence intensity [7]: 21.3 relative (HIV peptide = 100)
- mean relative fluorescence intensity [8]: 0 relative (HIV peptide = 100)
- Concentration of peptide that induces 20% of HLA-A2 expression [10]: 46.7 µM

Molecule: LMDLSTTEV [FOXM1-B2]
- In vitro binding affinity (relative affinity) [9]: 1.3
- mean relative fluorescence intensity [3]: 105 relative (HIV peptide = 100)
- mean relative fluorescence intensity [4]: 33.5 relative (HIV peptide = 100)
- mean relative fluorescence intensity [5]: 98.2 relative (HIV peptide = 100)
- mean relative fluorescence intensity [6]: 7.2 relative (HIV peptide = 100)
- mean relative fluorescence intensity [7]: 91.5 relative (HIV peptide = 100)
- mean relative fluorescence intensity [8]: 12.7 relative (HIV peptide = 100)
- Concentration of peptide that induces 20% of HLA-A2 expression [10]: 6.7 µM

Molecule: GLLGEFLQI [BIRC5-B3]
- In vitro binding affinity (relative affinity) [9]: 7
- mean relative fluorescence intensity [3]: 35 relative (HIV peptide = 100)
- mean relative fluorescence intensity [5]: 20.9 relative (HIV peptide = 100)
- mean relative fluorescence intensity [6]: 9.4 relative (HIV peptide = 100)
- mean relative fluorescence intensity [7]: 29.8 relative (HIV peptide = 100)
- mean relative fluorescence intensity [8]: 8.9 relative (HIV peptide = 100)
- Concentration of peptide that induces 20% of HLA-A2 expression [10]: 22.9 µM

Molecule: FMPFGFILGV [IL13RA2-B3]
- In vitro binding affinity (relative affinity) [1]: 4.39
- Concentration of peptide that induces 20% of HLA-A2 expression [2]: 3.3 µM

Molecule: LMDLSTTPL [FOXM1-H2]
- In vitro binding affinity (relative affinity) [9]: 2.5
- mean relative fluorescence intensity [3]: 77.6 relative (HIV peptide = 100)
- mean relative fluorescence intensity [4]: 19.7 relative (HIV peptide = 100)
- mean relative fluorescence intensity [5]: 65.4 relative (HIV peptide = 100)
- mean relative fluorescence intensity [6]: 5.3 relative (HIV peptide = 100)
- mean relative fluorescence intensity [7]: 62.5 relative (HIV peptide = 100)
- mean relative fluorescence intensity [8]: 0.9 relative (HIV peptide = 100)
- Concentration of peptide that induces 20% of HLA-A2 expression [10]: 12.6 µM

Molecule: FMPFGFILV [IL13RA2-B2 (SEQ ID NO: 64, Example 13)]
- In vitro binding affinity (relative affinity) [1]: 5.97
- Concentration of peptide that induces 20% of HLA-A2 expression [2]: 4.5 µM

Molecule: YMPFGFILV [IL13RA2-B4]
- In vitro binding affinity (relative affinity) [1]: 5.24
- Concentration of peptide that induces 20% of HLA-A2 expression [2]: 4.5 µM

Molecule: YLPFGFILV [IL13RA2-B5]
- In vitro binding affinity (relative affinity) [1]: 1.76
- Concentration of peptide that induces 20% of HLA-A2 expression [2]: 1.5 µM

Molecule: YTLGEFLYI [BIRC5-B2]
- In vitro binding affinity (relative affinity) [9]: 4.5
- mean relative fluorescence intensity [3]: 58 relative (HIV peptide = 100)
- mean relative fluorescence intensity [4]: 9 relative (HIV peptide = 100)
- mean relative fluorescence intensity [5]: 29.6 relative (HIV peptide = 100)
- mean relative fluorescence intensity [7]: 54.4 relative (HIV peptide = 100)
- mean relative fluorescence intensity [8]: 6.6 relative (HIV peptide = 100)
- Concentration of peptide that induces 20% of HLA-A2 expression [10]: 14.7 µM
